The target in the data set is FANCI-Ub (mono-ubiquitinated at K523);FANCD2-Ub (mono-ubiquitinated at K561) (human;human) (UniProt Q9NVI1+Q9BXW9). Briefly: EMSA. The settings on record: nick. In general terms: A gel shift assay detects complexes by their altered migration in electrophoresis.
FANCI-Ub (mono-ubiquitinated at K523);FANCD2-Ub (mono-ubiquitinated at K561) (human;human), sequence (Q9NVI1 whole entry, chain 1 of 2): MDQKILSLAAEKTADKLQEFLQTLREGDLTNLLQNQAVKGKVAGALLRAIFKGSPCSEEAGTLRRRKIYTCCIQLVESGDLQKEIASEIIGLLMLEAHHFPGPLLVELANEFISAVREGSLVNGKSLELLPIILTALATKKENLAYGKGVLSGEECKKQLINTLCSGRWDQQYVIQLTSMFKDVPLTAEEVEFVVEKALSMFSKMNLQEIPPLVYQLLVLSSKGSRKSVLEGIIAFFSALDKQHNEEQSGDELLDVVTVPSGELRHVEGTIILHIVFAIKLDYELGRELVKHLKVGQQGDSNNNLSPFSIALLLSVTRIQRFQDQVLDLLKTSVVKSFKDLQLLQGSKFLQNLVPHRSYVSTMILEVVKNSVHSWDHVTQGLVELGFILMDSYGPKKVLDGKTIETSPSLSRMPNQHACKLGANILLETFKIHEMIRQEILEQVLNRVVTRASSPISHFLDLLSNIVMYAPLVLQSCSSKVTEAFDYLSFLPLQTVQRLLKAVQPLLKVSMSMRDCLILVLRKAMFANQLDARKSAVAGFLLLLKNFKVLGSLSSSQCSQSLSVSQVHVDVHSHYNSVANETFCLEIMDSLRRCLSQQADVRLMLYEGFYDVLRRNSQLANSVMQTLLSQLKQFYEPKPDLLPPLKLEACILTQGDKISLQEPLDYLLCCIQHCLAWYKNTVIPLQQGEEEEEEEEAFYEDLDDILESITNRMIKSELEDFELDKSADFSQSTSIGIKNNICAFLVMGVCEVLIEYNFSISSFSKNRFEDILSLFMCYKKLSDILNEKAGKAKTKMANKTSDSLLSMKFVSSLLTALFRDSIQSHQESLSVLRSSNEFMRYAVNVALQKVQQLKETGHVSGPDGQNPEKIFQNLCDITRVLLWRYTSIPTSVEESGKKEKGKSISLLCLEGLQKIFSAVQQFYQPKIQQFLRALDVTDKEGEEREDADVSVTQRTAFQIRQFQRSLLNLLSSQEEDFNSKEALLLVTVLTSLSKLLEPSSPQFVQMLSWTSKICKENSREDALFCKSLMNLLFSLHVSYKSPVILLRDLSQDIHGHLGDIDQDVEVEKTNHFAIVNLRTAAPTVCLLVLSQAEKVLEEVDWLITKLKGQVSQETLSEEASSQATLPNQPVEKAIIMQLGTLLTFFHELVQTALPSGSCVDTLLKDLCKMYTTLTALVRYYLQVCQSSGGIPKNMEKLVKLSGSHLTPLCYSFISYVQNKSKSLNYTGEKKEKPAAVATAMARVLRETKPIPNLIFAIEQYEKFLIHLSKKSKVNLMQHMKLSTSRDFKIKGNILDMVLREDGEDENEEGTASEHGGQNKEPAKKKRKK
FANCI-Ub (mono-ubiquitinated at K523);FANCD2-Ub (mono-ubiquitinated at K561) (human;human), sequence (Q9BXW9 whole entry, chain 2 of 2): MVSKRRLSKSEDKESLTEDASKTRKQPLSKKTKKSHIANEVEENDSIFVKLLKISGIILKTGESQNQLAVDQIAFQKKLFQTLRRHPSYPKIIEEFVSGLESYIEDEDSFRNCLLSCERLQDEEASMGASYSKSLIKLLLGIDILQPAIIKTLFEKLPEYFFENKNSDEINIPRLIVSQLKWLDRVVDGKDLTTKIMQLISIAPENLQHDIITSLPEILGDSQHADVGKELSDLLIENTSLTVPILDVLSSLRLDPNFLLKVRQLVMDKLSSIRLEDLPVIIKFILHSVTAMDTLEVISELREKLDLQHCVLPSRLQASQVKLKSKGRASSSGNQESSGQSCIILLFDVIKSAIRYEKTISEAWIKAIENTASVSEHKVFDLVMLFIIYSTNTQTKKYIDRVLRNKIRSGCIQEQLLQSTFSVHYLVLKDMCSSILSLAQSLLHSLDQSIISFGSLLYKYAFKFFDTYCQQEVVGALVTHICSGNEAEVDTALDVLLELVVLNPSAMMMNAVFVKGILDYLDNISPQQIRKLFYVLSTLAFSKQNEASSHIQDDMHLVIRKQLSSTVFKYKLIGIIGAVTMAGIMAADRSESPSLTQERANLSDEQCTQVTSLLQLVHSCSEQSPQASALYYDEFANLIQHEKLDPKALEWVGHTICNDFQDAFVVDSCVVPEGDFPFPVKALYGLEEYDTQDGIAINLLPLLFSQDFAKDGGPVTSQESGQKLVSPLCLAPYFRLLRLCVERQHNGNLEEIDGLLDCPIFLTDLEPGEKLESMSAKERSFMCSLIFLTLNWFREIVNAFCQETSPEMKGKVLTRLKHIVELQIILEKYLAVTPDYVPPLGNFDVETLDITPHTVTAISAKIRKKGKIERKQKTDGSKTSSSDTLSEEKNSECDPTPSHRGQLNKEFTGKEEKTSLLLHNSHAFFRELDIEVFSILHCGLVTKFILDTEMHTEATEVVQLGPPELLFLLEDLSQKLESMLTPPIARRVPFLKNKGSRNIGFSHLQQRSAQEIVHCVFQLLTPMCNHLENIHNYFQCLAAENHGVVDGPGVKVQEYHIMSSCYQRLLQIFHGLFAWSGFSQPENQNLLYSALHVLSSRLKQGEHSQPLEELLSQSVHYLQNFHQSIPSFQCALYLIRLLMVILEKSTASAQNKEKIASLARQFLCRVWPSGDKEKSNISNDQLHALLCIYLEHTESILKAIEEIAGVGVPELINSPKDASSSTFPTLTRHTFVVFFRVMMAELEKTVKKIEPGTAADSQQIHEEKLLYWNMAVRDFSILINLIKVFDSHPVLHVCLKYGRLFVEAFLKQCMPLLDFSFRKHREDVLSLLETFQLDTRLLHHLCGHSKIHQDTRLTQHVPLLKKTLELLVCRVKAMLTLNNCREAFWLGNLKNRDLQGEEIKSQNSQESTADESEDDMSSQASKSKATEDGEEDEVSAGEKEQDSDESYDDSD

In the case of nicked DNA, EMSA, the equilibrium dissociation constant (Kd) came out at 0.02 µM.

Usually Kd stands for a measure of binding affinity in units of concentration. Low values mean higher affinity, high ones lower affinity.

The values are drawn from publication doi:10.1101/854133.
